Where “and” joins values, the source holds several entries; their conditions need not be identical. Identical values can stand only once.
T1: p15 protein of African swine fever virus (African swine fever virus, UniProt Q65179 1-158)
T1 chain: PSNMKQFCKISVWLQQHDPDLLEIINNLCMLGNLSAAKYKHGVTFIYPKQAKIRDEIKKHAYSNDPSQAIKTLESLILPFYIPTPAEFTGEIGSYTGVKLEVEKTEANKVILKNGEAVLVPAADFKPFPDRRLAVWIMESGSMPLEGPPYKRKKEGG

B1: monoclonal antibody 4E2 (antibody, V domains shown)
VH: QVQLHQPGSVLVRPGASVKLSCKASGYTFTSSWMHWAKQRPGQGLEWIGEIHPKSGNTNYNENFKGKATLTVDTSSSTAYVDLSSLASEDSAVYYCARSGGTYYYAMDSWGQGTSVTVSS
VL: DIQMTQTTSSLSASLGDRVTISCRASQDTSNYLNWYQQKPDGTVKLLIYYTSRLHSGVPSRFSGSGSGTDFSLTINTLEQEDFATYFCQQGNTSPYTFGGGTKLEIK

Legend:
[1] = molecular target: p15 protein of African swine fever virus (African swine fever virus) (UniProt Q65179); experiment: cryo-EM structure
[2] = molecular target: T1, p15 protein of African swine fever virus; experiment: SPR
[3] = molecular target: p15 protein of African swine fever virus (African swine fever virus, UniProt Q65179); experiment: SPR; settings: both partners purified

| Molecule | stoichiometry N [1] | koff [2] [s⁻¹] | Kd [3] [nM] |
| --- | --- | --- | --- |
| p15 protein of African swine fever virus (from UniProt Q65179 1-158) (natural protein) | 3 and 6 | – | – |
| B1 | – | 0.000503 | 6.39 |
